The binders below were run against γ-secretase (human; HeLa cell membrane / solubilized HeLa membrane; endogenous in HEK293 cells) (human, UniProt P49768 1-467; Q92542 34-709; Q9NZ42 1-101; Q96BI3 1-265).

Row | Binder | IC50
1 | LVFFAEN [Aβ17-23 heptapeptide with the Iowa mutation (D23N)] | 2940 nM
2 | LVFFAGD [Aβ17-23 heptapeptide with the Arctic mutation (E22G)] | 3890 nM

Further binders by falling IC50, results first:

Row | IC50 | Binder
3 | 5270 nM | LVFFGED [Aβ17-23 heptapeptide with the Flemish mutation (A21G)]
4 | 2130 nM | LVFFAKD [Aβ17-23 heptapeptide with the Italian mutation (E22K)]
5 | 2120 nM | LVFFAQD [Aβ17-23 heptapeptide with the Dutch mutation (E22Q)]

Reference: US20100285988A1 (published 2010)
